In patent US10941182 (Amgen, dated 2021):
Starred links: 1 amine or outer side, 2 acyl side, 3 side chain; linkers in the order of their positions; H or OH if unused. Non-standard residues stand in square brackets, D forms with d. *: point of attachment. dBip = N[C@H](Cc1ccc(-c2ccccc2)cc1)C(=O)O; Oic = O=C(O)[C@@H]1C[C@@H]2CCCC[C@@H]2N1; Phe(4-Cl) = N[C@@H](Cc1ccc(Cl)cc1)C(=O)O; Phe(4-I) = N[C@@H](Cc1ccc(I)cc1)C(=O)O; γGlu = O=C(O)[C@H](CCC(=O)[*:2])N[*:1]; Tridecanoyl = CCCCCCCCCCCCC(=O)*; hArg = N=C(N)NCCCC[C@H](N)C(=O)O; Cha = N[C@@H](CC1CCCCC1)C(=O)O; NMeL = CN[C@@H](CC(C)C)C(=O)O; Nle = CCCC[C@H](N)C(=O)O; AEEA = NCCOCCOCC(=O)O

Tests used:
human APJ receptor = target: T1, human APJ receptor (human, UniProt P35414 1-380); assay: cell-based or functional assay
T1 sequence (looked up): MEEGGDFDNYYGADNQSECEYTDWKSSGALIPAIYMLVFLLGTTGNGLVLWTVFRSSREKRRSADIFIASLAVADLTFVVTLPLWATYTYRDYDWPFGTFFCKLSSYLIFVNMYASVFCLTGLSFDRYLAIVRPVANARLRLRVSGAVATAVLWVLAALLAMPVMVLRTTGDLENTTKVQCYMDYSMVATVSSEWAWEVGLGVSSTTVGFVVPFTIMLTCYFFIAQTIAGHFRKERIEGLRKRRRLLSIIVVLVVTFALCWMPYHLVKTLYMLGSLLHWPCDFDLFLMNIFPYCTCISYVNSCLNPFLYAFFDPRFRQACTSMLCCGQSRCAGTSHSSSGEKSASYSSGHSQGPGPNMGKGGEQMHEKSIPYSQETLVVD

rat APJ receptor = target: T2, rat APJ receptor (rat, UniProt Q9JHG3 1-377); assay: cell-based or functional assay
T2 sequence (looked up): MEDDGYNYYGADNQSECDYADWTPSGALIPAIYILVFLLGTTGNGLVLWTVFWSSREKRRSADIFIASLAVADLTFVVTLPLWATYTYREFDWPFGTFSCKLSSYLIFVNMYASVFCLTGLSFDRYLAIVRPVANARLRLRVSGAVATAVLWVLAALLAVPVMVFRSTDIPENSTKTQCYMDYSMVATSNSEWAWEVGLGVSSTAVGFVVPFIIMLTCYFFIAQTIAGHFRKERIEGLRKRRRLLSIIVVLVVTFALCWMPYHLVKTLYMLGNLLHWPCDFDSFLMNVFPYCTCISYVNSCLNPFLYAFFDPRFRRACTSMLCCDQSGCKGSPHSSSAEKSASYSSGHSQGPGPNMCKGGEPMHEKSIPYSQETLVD

B1: Apelin polypeptide SEQ ID NO: 335 (peptide)
peptide: Tridecanoyl-[γGlu][AEEA][AEEA]RQRP[Nle][Cha]SHKG[Oic][Nle]P[Phe(4-Cl)]-OH
SMILES: CCCCCCCCCCCCC(=O)N[C@@H](CCC(=O)NCCOCCOCC(=O)NCCOCCOCC(=O)N[C@@H](CCCNC(=N)N)C(=O)N[C@@H](CCC(N)=O)C(=O)N[C@@H](CCCNC(=N)N)C(=O)N1CCC[C@H]1C(=O)N[C@@H](CCCC)C(=O)N[C@@H](CC1CCCCC1)C(=O)N[C@@H](CO)C(=O)N[C@@H](Cc1c[nH]cn1)C(=O)N[C@@H](CCCCN)C(=O)NCC(=O)N1[C@H](C(=O)N[C@@H](CCCC)C(=O)N2CCC[C@H]2C(=O)N[C@@H](Cc2ccc(Cl)cc2)C(=O)O)C[C@@H]2CCCC[C@@H]21)C(=O)O
Human APJ receptor
  EC50 Human APJ Receptor (GTPγS assay): 0.315 nM
Rat APJ receptor
  EC50 Rat APJ Receptor (GTPγS assay): 0.964 nM

B2: Apelin polypeptide SEQ ID NO: 320 (peptide)
peptide: Tridecanoyl-[γGlu][AEEA][AEEA][Nle][dR]Q[hArg]P[dR][NMeL]AHKG[Oic][Phe(4-I)]P[dBip]-OH
SMILES: CCCCCCCCCCCCC(=O)N[C@@H](CCC(=O)NCCOCCOCC(=O)NCCOCCOCC(=O)N[C@@H](CCCC)C(=O)N[C@H](CCCNC(=N)N)C(=O)N[C@@H](CCC(N)=O)C(=O)N[C@@H](CCCCNC(=N)N)C(=O)N1CCC[C@H]1C(=O)N[C@H](CCCNC(=N)N)C(=O)N(C)[C@@H](CC(C)C)C(=O)N[C@@H](C)C(=O)N[C@@H](Cc1c[nH]cn1)C(=O)N[C@@H](CCCCN)C(=O)NCC(=O)N1[C@H](C(=O)N[C@@H](Cc2ccc(I)cc2)C(=O)N2CCC[C@H]2C(=O)N[C@H](Cc2ccc(-c3ccccc3)cc2)C(=O)O)C[C@@H]2CCCC[C@@H]21)C(=O)O
Human APJ receptor
  EC50 Human APJ Receptor (GTPγS assay): 17.9 nM
Rat APJ receptor
  EC50 Rat APJ Receptor (GTPγS assay): 37.7 nM

B3: Apelin polypeptide SEQ ID NO: 342 (peptide)
peptide: Tridecanoyl-[γGlu][AEEA][AEEA][Nle]QRP[hArg][Cha]SAKG[Oic][Nle]P[Phe(4-Cl)]-OH
SMILES: CCCCCCCCCCCCC(=O)N[C@@H](CCC(=O)NCCOCCOCC(=O)NCCOCCOCC(=O)N[C@@H](CCCC)C(=O)N[C@@H](CCC(N)=O)C(=O)N[C@@H](CCCNC(=N)N)C(=O)N1CCC[C@H]1C(=O)N[C@@H](CCCCNC(=N)N)C(=O)N[C@@H](CC1CCCCC1)C(=O)N[C@@H](CO)C(=O)N[C@@H](C)C(=O)N[C@@H](CCCCN)C(=O)NCC(=O)N1[C@H](C(=O)N[C@@H](CCCC)C(=O)N2CCC[C@H]2C(=O)N[C@@H](Cc2ccc(Cl)cc2)C(=O)O)C[C@@H]2CCCC[C@@H]21)C(=O)O
Human APJ receptor
  EC50 Human APJ Receptor (GTPγS assay): 0.803 nM
Rat APJ receptor
  EC50 Rat APJ Receptor (GTPγS assay): 0.684 nM

B4: Apelin polypeptide SEQ ID NO: 332 (peptide)
peptide: Tridecanoyl-[γGlu][AEEA][AEEA][Nle][dR]Q[hArg]P[dR][NMeL]AAKG[Oic][Phe(4-I)]P[dBip]-OH
SMILES: CCCCCCCCCCCCC(=O)N[C@@H](CCC(=O)NCCOCCOCC(=O)NCCOCCOCC(=O)N[C@@H](CCCC)C(=O)N[C@H](CCCNC(=N)N)C(=O)N[C@@H](CCC(N)=O)C(=O)N[C@@H](CCCCNC(=N)N)C(=O)N1CCC[C@H]1C(=O)N[C@H](CCCNC(=N)N)C(=O)N(C)[C@@H](CC(C)C)C(=O)N[C@@H](C)C(=O)N[C@@H](C)C(=O)N[C@@H](CCCCN)C(=O)NCC(=O)N1[C@H](C(=O)N[C@@H](Cc2ccc(I)cc2)C(=O)N2CCC[C@H]2C(=O)N[C@H](Cc2ccc(-c3ccccc3)cc2)C(=O)O)C[C@@H]2CCCC[C@@H]21)C(=O)O
Human APJ receptor
  EC50 Human APJ Receptor (GTPγS assay): 40 nM
Rat APJ receptor
  EC50 Rat APJ Receptor (GTPγS assay): 50.5 nM

B5: Apelin polypeptide SEQ ID NO: 347 (peptide)
peptide: Tridecanoyl-[γGlu][AEEA][AEEA][Nle]QRP[hArg][Cha]AAKG[Oic][Nle]P[Phe(4-Cl)]-OH
SMILES: CCCCCCCCCCCCC(=O)N[C@@H](CCC(=O)NCCOCCOCC(=O)NCCOCCOCC(=O)N[C@@H](CCCC)C(=O)N[C@@H](CCC(N)=O)C(=O)N[C@@H](CCCNC(=N)N)C(=O)N1CCC[C@H]1C(=O)N[C@@H](CCCCNC(=N)N)C(=O)N[C@@H](CC1CCCCC1)C(=O)N[C@@H](C)C(=O)N[C@@H](C)C(=O)N[C@@H](CCCCN)C(=O)NCC(=O)N1[C@H](C(=O)N[C@@H](CCCC)C(=O)N2CCC[C@H]2C(=O)N[C@@H](Cc2ccc(Cl)cc2)C(=O)O)C[C@@H]2CCCC[C@@H]21)C(=O)O
Human APJ receptor
  EC50 Human APJ Receptor (GTPγS assay): 1.89 nM
Rat APJ receptor
  EC50 Rat APJ Receptor (GTPγS assay): 2.13 nM

B6: Apelin polypeptide SEQ ID NO: 326 (peptide)
peptide: Tridecanoyl-[γGlu][AEEA][AEEA][Nle][dR]Q[hArg]P[dR][NMeL]SAKG[Oic][Phe(4-I)]P[dBip]-OH
SMILES: CCCCCCCCCCCCC(=O)N[C@@H](CCC(=O)NCCOCCOCC(=O)NCCOCCOCC(=O)N[C@@H](CCCC)C(=O)N[C@H](CCCNC(=N)N)C(=O)N[C@@H](CCC(N)=O)C(=O)N[C@@H](CCCCNC(=N)N)C(=O)N1CCC[C@H]1C(=O)N[C@H](CCCNC(=N)N)C(=O)N(C)[C@@H](CC(C)C)C(=O)N[C@@H](CO)C(=O)N[C@@H](C)C(=O)N[C@@H](CCCCN)C(=O)NCC(=O)N1[C@H](C(=O)N[C@@H](Cc2ccc(I)cc2)C(=O)N2CCC[C@H]2C(=O)N[C@H](Cc2ccc(-c3ccccc3)cc2)C(=O)O)C[C@@H]2CCCC[C@@H]21)C(=O)O
Human APJ receptor
  EC50 Human APJ Receptor (GTPγS assay): 14.8 nM
Rat APJ receptor
  EC50 Rat APJ Receptor (GTPγS assay): 17.8 nM

B7: Apelin polypeptide SEQ ID NO: 316 (peptide)
peptide: Tridecanoyl-[γGlu][AEEA][AEEA][hArg][dR]Q[Nle]P[dR][NMeL]SHKG[Oic][Phe(4-I)]P[dBip]-OH
SMILES: CCCCCCCCCCCCC(=O)N[C@@H](CCC(=O)NCCOCCOCC(=O)NCCOCCOCC(=O)N[C@@H](CCCCNC(=N)N)C(=O)N[C@H](CCCNC(=N)N)C(=O)N[C@@H](CCC(N)=O)C(=O)N[C@@H](CCCC)C(=O)N1CCC[C@H]1C(=O)N[C@H](CCCNC(=N)N)C(=O)N(C)[C@@H](CC(C)C)C(=O)N[C@@H](CO)C(=O)N[C@@H](Cc1c[nH]cn1)C(=O)N[C@@H](CCCCN)C(=O)NCC(=O)N1[C@H](C(=O)N[C@@H](Cc2ccc(I)cc2)C(=O)N2CCC[C@H]2C(=O)N[C@H](Cc2ccc(-c3ccccc3)cc2)C(=O)O)C[C@@H]2CCCC[C@@H]21)C(=O)O
Human APJ receptor
  EC50 Human APJ Receptor (GTPγS assay): 6 nM
Rat APJ receptor
  EC50 Rat APJ Receptor (GTPγS assay): 9.29 nM

B8: Apelin polypeptide SEQ ID NO: 338 (peptide)
peptide: Tridecanoyl-[γGlu][AEEA][AEEA][Nle]QRP[hArg][Cha]SHKG[Oic][Nle]P[Phe(4-Cl)]-OH
SMILES: CCCCCCCCCCCCC(=O)N[C@@H](CCC(=O)NCCOCCOCC(=O)NCCOCCOCC(=O)N[C@@H](CCCC)C(=O)N[C@@H](CCC(N)=O)C(=O)N[C@@H](CCCNC(=N)N)C(=O)N1CCC[C@H]1C(=O)N[C@@H](CCCCNC(=N)N)C(=O)N[C@@H](CC1CCCCC1)C(=O)N[C@@H](CO)C(=O)N[C@@H](Cc1c[nH]cn1)C(=O)N[C@@H](CCCCN)C(=O)NCC(=O)N1[C@H](C(=O)N[C@@H](CCCC)C(=O)N2CCC[C@H]2C(=O)N[C@@H](Cc2ccc(Cl)cc2)C(=O)O)C[C@@H]2CCCC[C@@H]21)C(=O)O
Human APJ receptor
  EC50 Human APJ Receptor (GTPγS assay): 0.56 nM
Rat APJ receptor
  EC50 Rat APJ Receptor (GTPγS assay): 0.766 nM

B9: Apelin polypeptide SEQ ID NO: 328 (peptide)
peptide: Tridecanoyl-[γGlu][AEEA][AEEA][hArg][dR]Q[Nle]P[dR][NMeL]SAKG[Oic][Phe(4-I)]P[dBip]-OH
SMILES: CCCCCCCCCCCCC(=O)N[C@@H](CCC(=O)NCCOCCOCC(=O)NCCOCCOCC(=O)N[C@@H](CCCCNC(=N)N)C(=O)N[C@H](CCCNC(=N)N)C(=O)N[C@@H](CCC(N)=O)C(=O)N[C@@H](CCCC)C(=O)N1CCC[C@H]1C(=O)N[C@H](CCCNC(=N)N)C(=O)N(C)[C@@H](CC(C)C)C(=O)N[C@@H](CO)C(=O)N[C@@H](C)C(=O)N[C@@H](CCCCN)C(=O)NCC(=O)N1[C@H](C(=O)N[C@@H](Cc2ccc(I)cc2)C(=O)N2CCC[C@H]2C(=O)N[C@H](Cc2ccc(-c3ccccc3)cc2)C(=O)O)C[C@@H]2CCCC[C@@H]21)C(=O)O
Human APJ receptor
  EC50 Human APJ Receptor (GTPγS assay): 9.17 nM
Rat APJ receptor
  EC50 Rat APJ Receptor (GTPγS assay): 7.7 nM

B10: Apelin polypeptide SEQ ID NO: 350 (peptide)
peptide: Tridecanoyl-[γGlu][AEEA][AEEA]RQRP[Nle][Cha]SAKG[Oic][Nle]P[Phe(4-Cl)]-OH
SMILES: CCCCCCCCCCCCC(=O)N[C@@H](CCC(=O)NCCOCCOCC(=O)NCCOCCOCC(=O)N[C@@H](CCCNC(=N)N)C(=O)N[C@@H](CCC(N)=O)C(=O)N[C@@H](CCCNC(=N)N)C(=O)N1CCC[C@H]1C(=O)N[C@@H](CCCC)C(=O)N[C@@H](CC1CCCCC1)C(=O)N[C@@H](CO)C(=O)N[C@@H](C)C(=O)N[C@@H](CCCCN)C(=O)NCC(=O)N1[C@H](C(=O)N[C@@H](CCCC)C(=O)N2CCC[C@H]2C(=O)N[C@@H](Cc2ccc(Cl)cc2)C(=O)O)C[C@@H]2CCCC[C@@H]21)C(=O)O
Human APJ receptor
  EC50 Human APJ Receptor (GTPγS assay): 0.285 nM
Rat APJ receptor
  EC50 Rat APJ Receptor (GTPγS assay): 0.624 nM
